Results published in patent EP0562624A2, “Stabilization of functional proteins” (Modrovich, Ivan E., priority 1992, dated 1993).

Experiment: Stability of HRP in uric acid single reagent solution
Type: physicochemical
Settings: Uric Acid SR Model
Method: As in Example 2 Horseradish Peroxidase (HRP) was dissolved in an aqueous base containing 50 mg/ml BSA and 10 mg/ml Tris with no pH adjustment. HRP concentration was 30 mg/ml.
EDAC and PSL solutions were formed as in Example 2 as in relative concentrations of 100 mg/ml and 20 mg/ml. The PSL solution was added in an amount of 0.14 ml per 0.5ml of HRP solution dropwise over an ice bath. This was followed by the addition of the EDAC solution in an amount of 0.05 ml per 0.5 ml of HRP solution. The mixture was stored at 4°C for 4 days and evaluated for the stability of HRP in a uric acid single reagent solution.
This is reported in Table 4 where the Control 4 is the unmodified horseradish peroxidase.

Example 4: Horseradish Peroxidase (HRP) stabilized with PSL and EDAC
%HRP of 4°C (1 day at 4°C): 100% | %HRP of 4°C (1 day at 41°C): 70% | %HRP of 4°C (3 days at 4°C): 100% | %HRP of 4°C (3 days at 41°C): 35%
